Source: patent publication US20180244796A1 (CARSGEN THERAPEUTICS, published 2018)
Ends that are not written are not given here. muFc = mouse Fc fragment of vector pCMV-V5-muFc

How the values were obtained:
scFv-P1A6E-Fc [1] = target: T1, scFv-P1A6E-Fc (human, UniProt P01857-1 99-330 = IgG part, limits assumed); test: ELISA, scFv-Fc against MSLT-R2-mFc; x axis con.(nM) [left panel]
T1 construct: domain: Fc fragment; scFv cloned NheI/BamHI into pCMV-V5-Fc, expressed in HEK-293F, protein A purified; also called P1A6E single chain antibody; antibody-Fc fusion protein scFv-P1A6E-Fc
T1 sequence (P01857 other isoform, or with tags, fused parts or gaps limits assumed): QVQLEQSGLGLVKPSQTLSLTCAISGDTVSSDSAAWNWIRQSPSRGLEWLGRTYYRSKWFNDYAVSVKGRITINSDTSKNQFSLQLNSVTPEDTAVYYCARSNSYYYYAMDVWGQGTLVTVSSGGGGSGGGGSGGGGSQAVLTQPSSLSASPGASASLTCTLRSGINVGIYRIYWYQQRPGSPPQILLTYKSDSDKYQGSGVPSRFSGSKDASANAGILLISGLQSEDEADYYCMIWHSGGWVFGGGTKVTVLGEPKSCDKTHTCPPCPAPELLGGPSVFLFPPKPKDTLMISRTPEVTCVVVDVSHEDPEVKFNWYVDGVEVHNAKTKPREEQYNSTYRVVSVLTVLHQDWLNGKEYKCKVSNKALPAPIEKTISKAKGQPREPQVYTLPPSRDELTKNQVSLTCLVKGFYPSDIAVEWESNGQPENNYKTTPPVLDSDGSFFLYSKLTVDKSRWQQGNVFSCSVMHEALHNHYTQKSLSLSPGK

scFv-P3F2-Fc [2] = target: T2, scFv-P3F2-Fc (human, UniProt P01857-1 99-330 = IgG part, limits assumed); test: ELISA, scFv-Fc against MSLT-R2-mFc; x axis con.(nM) [right panel]
T2 construct: domain: Fc fragment; scFv cloned NheI/BamHI into pCMV-V5-Fc, expressed in HEK-293F, protein A purified; also called P3F2 single chain antibody; P3F2 single chain antibod
T2 sequence (P01857 other isoform, or with tags, fused parts or gaps limits assumed): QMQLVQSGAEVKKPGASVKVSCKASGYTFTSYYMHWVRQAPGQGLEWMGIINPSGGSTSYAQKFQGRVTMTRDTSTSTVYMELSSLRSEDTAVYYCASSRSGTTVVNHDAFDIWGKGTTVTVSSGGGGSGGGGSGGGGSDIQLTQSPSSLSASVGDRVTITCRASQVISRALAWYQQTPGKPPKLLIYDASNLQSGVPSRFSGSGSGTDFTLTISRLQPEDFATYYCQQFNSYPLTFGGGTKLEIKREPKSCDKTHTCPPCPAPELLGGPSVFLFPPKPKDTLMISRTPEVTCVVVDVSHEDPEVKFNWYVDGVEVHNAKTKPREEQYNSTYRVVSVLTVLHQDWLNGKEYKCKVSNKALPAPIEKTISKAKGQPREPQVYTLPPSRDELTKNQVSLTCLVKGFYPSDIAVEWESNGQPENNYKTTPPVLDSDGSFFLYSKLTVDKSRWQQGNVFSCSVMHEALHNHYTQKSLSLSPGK

scFv-P3F2-Fc [3] = target: T2, scFv-P3F2-Fc; test: ELISA, scFv-Fc against MSTL-R1AB-mFc; x axis con.(nM), the sheet does not say whose concentration [right panel]
scFv-P1A6E-Fc [4] = target: T1, scFv-P1A6E-Fc; test: ELISA, scFv-Fc against MSTL-R1AB-mFc; x axis con.(nM), the sheet does not say whose concentration [left panel]
scFv-P1A6E-Fc [5] = target: T1, scFv-P1A6E-Fc; test: ELISA, scFv-Fc against MSTL-R1B-mFc; x axis con.(nM) [left panel]
scFv-P3F2-Fc [6] = target: T2, scFv-P3F2-Fc; test: ELISA, scFv-Fc against MSTL-R1B-mFc; x axis con.(nM) [right panel]
scFv-P3F2-Fc [7] = target: T2, scFv-P3F2-Fc; test: ELISA, scFv-Fc against MSLT-R3-mFc; x axis con.(nM) [right panel]
scFv-P1A6E-Fc [8] = target: T1, scFv-P1A6E-Fc; test: ELISA, scFv-Fc against MSLT-R3-mFc; x axis con.(nM) [left panel]
scFv-P3F2-Fc [9] = target: T2, scFv-P3F2-Fc; test: ELISA, scFv-Fc against MSTL-R1A-mFc; x axis con.(nM), the sheet does not say whose concentration [right panel]
scFv-P1A6E-Fc [10] = target: T1, scFv-P1A6E-Fc; test: ELISA, scFv-Fc against MSTL-R1A-mFc; x axis con.(nM), the sheet does not say whose concentration [left panel]
scFv-P3F2-Fc [11] = target: T2, scFv-P3F2-Fc; test: ELISA on peptide-muFc fusion proteins
scFv-P1A6E-Fc [12] = target: T1, scFv-P1A6E-Fc; test: ELISA on peptide-muFc fusion proteins
scFv-P1A6E-Fc [13] = target: T1, scFv-P1A6E-Fc; test: ELISA, scFv-Fc against MSLT-R1-mFc; x axis con.(nM), the sheet does not say whose concentration [left panel]
scFv-P3F2-Fc [14] = target: T2, scFv-P3F2-Fc; test: ELISA, scFv-Fc against MSLT-R1-mFc; x axis con.(nM), the sheet does not say whose concentration [right panel]
scFv-P3F2-Fc [15] = target: T2, scFv-P3F2-Fc; test: flow cytometry on PANC-1-MSLN cells, 20 ug/ml antibody, goat anti-human-FITC
Experimental: (§1) Each of antibodies scFv-P1A6E-Fc and scFv-P3F2-Fc was analyzed for binding ability to mesothelin at cell surface by Fluorescence Activated Cell Sorter (FACS) (Guava 8HT, supplied by Millipore).
(§2) 4) antibodies P1A6E and P3F2 to be tested were added into the two experimental groups, respectively, adding antibodies ss and C10 (purchased from Shanghai Rui Jin Biotechnology Co., Ltd.) were added into two positive control groups added as positive controls, and another control group is PBS blank control without antibody. The final concentration of each antibody was 20 μg/ml. 100 μl was added to each tube, and incubated in an ice bath for 45 minutes.

scFv-P1A6E-Fc [16] = target: T1, scFv-P1A6E-Fc; test: as above
Experimental: as §1, §2

B1: human mesothelin region R2 (S391-Q486)-muFc fusion protein (Fc fusion)
chain: SLETLKALLEVNKGHEMSPQVATLIDRFVKGRGQLDKDTLDTLTAFYPGYLCSLSPEELSSVPPSSIWAVRPQDLDTCDPRQLDVLYPKARLAFQ
notes: not shown: mouse Fc fragment of vector pCMV-V5-muFc
B1: no binding (tested: last point between 100 and 1000 nM) (scFv-P1A6E-Fc [1]); no binding (tested: last point between 100 and 1000 nM) (scFv-P3F2-Fc [2]).

B2: human mesothelin region R1AB (296E-359L)-muFc fusion protein (Fc fusion)
chain: EVEKTACPSGKKAREIDESLIFYKKWELEACVDAALLATQMDRVNAIPFTYEQLDVLKHKLDEL
notes: as for B1
B2: binds (scFv-P3F2-Fc [3]); binds (scFv-P1A6E-Fc [4]).

B3: human mesothelin region R1B (328D-369I)-muFc fusion protein (Fc fusion)
chain: DAALLATQMDRVNAIPFTYEQLDVLKHKLDELYPQGYPESVI-muFc
notes: as for B1
B3: no binding (tested: last point just under 100 nM) (scFv-P1A6E-Fc [5]); no binding (tested: last point just under 100 nM) (scFv-P3F2-Fc [6]).

B4: human mesothelin region R3 (N487-G581)-muFc fusion protein (Fc fusion)
chain: NMNGSEYFVKIQSFLGGAPTEDLKALSQQNVSMDLATFMKLRTDAVLPLTVAEVQKLLGPHVEGLKAEERHRPVRDWILRQRQDDLDTLGLGLQG
notes: as for B1
B4: no binding (tested: last point between 100 and 1000 nM) (scFv-P3F2-Fc [7]); no binding (tested: last point between 100 and 1000 nM) (scFv-P1A6E-Fc [8]).

B5: human mesothelin region R1A (296E-337D)-muFc fusion protein (Fc fusion)
chain: EVEKTACPSGKKAREIDESLIFYKKWELEACVDAALLATQMD
notes: as for B1
B5: binds (scFv-P3F2-Fc [9]); binds (scFv-P1A6E-Fc [10]).

YKKWELEACVDAALLATQMDRVNAIPFTYE (Fc fusion, not shown: mouse Fc fragment (muFc)) [mesothelin peptide R1J10-muFc fusion protein]: no binding (scFv-P3F2-Fc [11]); no binding (scFv-P1A6E-Fc [12]).

B6: human mesothelin region R1 (E296-T390)-muFc fusion protein (Fc fusion)
chain: EVEKTACPSGKKAREIDESLIFYKKWELEACVDAALLATQMDRVNAIPFTYEQLDVLKHKLDELYPQGYPESVIQHLGYLFLKMSPEDIRKWNVT
notes: also called region 1; not shown: mouse Fc fragment of vector pCMV-V5-muFc
B6: binds (scFv-P1A6E-Fc [13]); binds (scFv-P3F2-Fc [14]).

B7: human mesothelin on PANC-1-MSLN cells (other)
chain: APLADYKDDDDKEVEKTACPSGKKAREIDESLIFYKKWELEACVDAALLATQMDRVNAIPFTYEQLDVLKHKLDELYPQGYPESVIQHLGYLFLKMSPEDIRKWNVTSLETLKALLEVNKGHEMSPQVATLIDRFVKGRGQLDKDTLDTLTAFYPGYLCSLSPEELSSVPPSSIWAVRPQDLDTCDPRQLDVLYPKARLAFQNMNGSEYFVKIQSFLGGAPTEDLKALSQQNVSMDLATFMKLRTDAVLPLTVAEVQKLLGPHVEGLKAEERHRPVRDWILRQRQDDLDTLGLGLQGGIPNGYLVLDLSMQEALS
notes: also called mesothelin at cell surface
B7: binds (scFv-P3F2-Fc [15]); binds (scFv-P1A6E-Fc [16]).
